Experimental data reported in US20230220399.
Like-named read-outs stand apart in the source and are kept apart here.

Columns and labels:
[1] = target: PD-L1 (B7-H1) (Homo sapiens) (UniProt Q9NZQ7); settings: ELISA, SB18, 37 C
[2] = target: human serum albumin (HSA) (Homo sapiens) (UniProt P02768); settings: ELISA, SB18, 37 C
KRAS G12D G12D, P01116-2 = settings: ELISA, SB18, 37 C
[3] = target: 4-1BB (TNFRSF9) (Homo sapiens) (UniProt Q07011); settings: ELISA
[4] = Nap-dU at n (6) positions [Nap-dU at 29,36,38,41,44,45,48,57]
[5] = Nap-dU at n (6) positions [8,10-11,13,18-19,24,26,29]
[6] = Nap-dU at n (6) positions [9,14,18,24,31,32,33,35,44]
[7] = Nap-dU at n (6) positions [3,5-6,8,13-14,19,21,24]
[8] = Nap-dU at n (6) positions [Nap-dU at 24,31,33,36,39,40,43,52]
[9] = Nap-dU at n (6) positions [18,20,26,27,29,31,35,36,42,45,53,54,55,56]
[10] = Nap-dU at n (6) positions [18,20,22,32,33,34,35,36,44,45,47,53,57 (Nap-dU)]
[11] = Nap-dU at n (6) positions [5,7,9,14,22,24,28,29,30,31,38,40]
[12] = Nap-dU at n (6) positions [Nap-dU at 4,17,24,26,29,32,33,36,45]
[13] = Nap-dU at n (6) positions [12,21,26,30,36,43,44,45,47,56]
[14] = Nap-dU at n (6) positions [1,6,7,8,14,16,18,20], SB18, 37 C
[15] = Nap-dU at n (6) positions [1,6,7,8,14,16,18,20]
[16] = Nap-dU at n (6) positions [Nap-dU at 18,22,26,34,36,39,42,43,46,52,57]
[17] = Nap-dU at n (6) positions [Nap-dU at 21,28,30,33,36,37,40,49]
[18] = Nap-dU at n (6) positions [4,8,14,21-23,25]
[19] = Nap-dU at n (6) positions [16,25,27-28,30,35-36,41,43,46,53,56]
[20] = Nap-dU at n (6) positions [5,11,13,19,21,23,28,36,38,42-44]
[21] = Nap-dU at n (6) positions [4,8,14,21,22,23,25]
[22] = Nap-dU at n (6) positions [8,10-11,13,18-19,24,26,29,36,39]
[23] = Nap-dU at n (6) positions [5,11,13,19,21,23,28,36,38,42-45,52,54]
[24] = Nap-dU at n (6) positions [13,15-16,18,23-24,29,31,34,41,44]
[25] = Nap-dU at n (6) positions [2,4,10,12,14,19,27,29,33,34,35,36,43,45]
[26] = Nap-dU at n (6) positions [5,11,13,19,21,23,28,36,38,42,43,44,45]
[27] = Nap-dU at n (6) positions [5,11,13,19,21,23,28,36,38]
[28] = Nap-dU at n (6) positions [1,7,9,15,17,19,24,32,34,38,39,40,41,48,50]
[29] = Nap-dU at n (6) positions [5,11,13,19,21,23,28,36,37,39,44,45,50,52,54]
[30] = Nap-dU at n (6) positions [4,9,13,19,26,27,28,30]
[31] = Nap-dU at n (6) positions [2,4,9,17,19,23,24,25,26,33,35]
[32] = Nap-dU at n (6) positions [5,11,13,19,21,23,28]

4-1BB (TNFRSF9) (Homo sapiens), sequence (Q07011 24-186): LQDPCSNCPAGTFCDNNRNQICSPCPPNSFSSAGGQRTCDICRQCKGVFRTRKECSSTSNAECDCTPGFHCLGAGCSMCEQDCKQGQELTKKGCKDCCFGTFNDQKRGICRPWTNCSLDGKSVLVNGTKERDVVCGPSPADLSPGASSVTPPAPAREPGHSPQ
PD-L1 (B7-H1) (Homo sapiens), sequence (Q9NZQ7 19-238): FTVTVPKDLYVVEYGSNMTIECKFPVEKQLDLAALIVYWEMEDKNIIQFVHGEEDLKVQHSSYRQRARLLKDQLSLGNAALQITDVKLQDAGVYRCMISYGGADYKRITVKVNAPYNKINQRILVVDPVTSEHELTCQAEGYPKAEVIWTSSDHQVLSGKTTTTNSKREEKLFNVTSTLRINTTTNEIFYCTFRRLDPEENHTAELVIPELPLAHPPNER

GAGTGACCGTCTGCCTGACAACAACGAGTGCGAACTGTACTACTTGATAGAGACCCTC [AP023]
Kd [1, 4]: 93.2 nM | Kd [2, 4]: 51.7 nM

CCCCGCCTCTTCTGAAGTTAACATGTGCTCCGAGA [AD012]
Kd (KRAS G12D G12D, P01116-2; [5]): 23.1 nM | Kd [2, 5]: 28.7 nM

GCCTGGACTAGCATAAGTCCGGATGGCAGCTTTATGCCGACCATCAGCC [AD004]
Kd (KRAS G12D G12D, P01116-2; [6]): 16.6 nM | Kd [2, 6]: 190 nM

CCTCTTCTGAAGTTAACATGTGCTCC [AD015]
Kd [2, 7]: 36.8 nM

ACCGTCTGCCTGACAACAACGAGTGCGAACTGTACTACTTGATAGAGACCCTCAGCCACACCACCAGCC [AP021]
Kd [1, 8]: 130 nM | Kd [2, 8]: 15.6 nM

GAGTGACCGTCTGCCTGTGTGAGAATTATGTACCTTAACGATCATCCGAAGGTTTTGACCACAGCCACACCACCAGCC [AD001]
Kd (KRAS G12D G12D, P01116-2; [9]): 8.12 nM | Kd [2, 9]: 8.4 nM

GAGTGACCGTCTGCCTGTGTCTGAGGGACCCTTTTTAAGGGCATTATCAGCATGCCTCACACAGCCACACCACCAGCC [AD002]
Kd (KRAS G12D G12D, P01116-2; [10]): 0.55 nM | Kd [2, 10]: 1.3 nM

CGCGTGTGTGACCTGAAGACGTATAACTTTTACAGAATCTACA [AD051]
Kd (KRAS G12D G12D, P01116-2; [11]): 514 nM | Kd [2, 11]: 5.95 nM

GCCTGACAACAACGAGTGCGAACTGTACTACTTGATAGAGACCCTCAGCC [AP001]
Kd [1, 12]: 42.7 nM | Kd [2, 12]: 20.9 nM

GAGTGACCGTCTGCCTGGACTAGCATAAGTCCGGATGGCAGCTTTATGCCGACCATCAGCCACACCACCAGCC [AD003]
Kd (KRAS G12D G12D, P01116-2; [13]): 13.8 nM | Kd [2, 13]: 13 nM

TCGCCTTTACAACTATATCTGACGA [AB007]
Kd [3, 14]: 0.49 nM | Kd [2, 15]: 186 nM

GAGTGACCGTCTGCCTGTCAATCACTGACGAAATGTACTACTTGATAGAGCTAACCTCAGCCACACCACCAGCC [AP027]
Kd [1, 16]: 354 nM | Kd [2, 16]: 2.17 nM

GCCTGTCTCCAACCTCGCCTTTACAACTATATCTGACGAACTAACACAGCC [AB002]
Kd ([3]; Nap-dU at n (6) positions [6,8,15,20,21,22,28,30,32,34,42], SB18, 37 C): 0.48 nM | Kd ([2]; Nap-dU at n (6) positions [6,8,15,20,21,22,28,30,32,34,42]): 2.92 nM

TCTCCAACCTCGCCTTTACAACTATATCTGACGAACTAACA [AB003]
Kd ([3]; Nap-dU at n (6) positions [1,3,10,15,16,17,23,25,27,29,37], SB18, 37 C): 0.87 nM | Kd ([2]; Nap-dU at n (6) positions [1,3,10,15,16,17,23,25,27,29,37]): 19.8 nM

GTCTGCCTGACAACAACGAGTGCGAACTGTACTACTTGATAGAGACCCTC [AP024]
Kd [1, 17]: 33.3 nM | Kd [2, 17]: 22.3 nM

CCTCTTCTGAAGTTAACATGTGCTCCGAGA [AD013]
Kd (KRAS G12D G12D, P01116-2; [7]): 3.99 nM | Kd [2, 7]: 47 nM

GCATAAGTCCGGATGGCAGCTTTATGC [AD008]
Kd (KRAS G12D G12D, P01116-2; [18]): 287 nM | Kd [2, 18]: 66.9 nM

GAGTGACCGTCTGCCTGCCCCGCCTCTTCTGAAGTTAACATGTGCTCCGAGATGGTACAGCCACACCACCAGCC [AD009]
Kd (KRAS G12D G12D, P01116-2; [19]): 0.51 nM | Kd [2, 19]: 0.65 nM

GTCTGCCTGACAACAACGAGTGCGAACTGTACTACTTGATAGAGACCCTCAGCCACACCACCAGCC [AP022]
Kd [1, 17]: 66.6 nM | Kd [2, 17]: 16.6 nM

CAGGTCGAGCTGTACGCGTGTGTGACCTGAAGACGTATAACTTT [AD045]
Kd (KRAS G12D G12D, P01116-2; [20]): 20 nM | Kd [2, 20]: 0.73 nM

GCATAAGTCCGGATGGCAGCTTTATGCCGACC [AD007]
Kd (KRAS G12D G12D, P01116-2; [21]): 152 nM | Kd [2, 21]: 536 nM

CCCCGCCTCTTCTGAAGTTAACATGTGCTCCGAGATGGTA [AD011]
Kd (KRAS G12D G12D, P01116-2; [22]): 9.46 nM | Kd [2, 22]: 5.46 nM

CAGGTCGAGCTGTACGCGTGTGTGACCTGAAGACGTATAACTTTTACAGAATCTACA [AD032]
Kd (KRAS G12D G12D, P01116-2; [23]): 15.5 nM | Kd [2, 23]: 0.68 nM

GCCTGCCCCGCCTCTTCTGAAGTTAACATGTGCTCCGAGATGGTACAGCC [AD010]
Kd (KRAS G12D G12D, P01116-2; [24]): 8.18 nM | Kd [2, 24]: 4.49 nM

TCGCCTTTACAACTATATCTGACGAAC [AB006]
Kd [3, 14]: 0.44 nM | Kd [2, 15]: 278 nM

CTGTACGCGTGTGTGACCTGAAGACGTATAACTTTTACAGAATCTACA [AD052]
Kd (KRAS G12D G12D, P01116-2; [25]): 4.93 nM | Kd [2, 25]: 3.06 nM

CAGGTCGAGCTGTACGCGTGTGTGACCTGAAGACGTATAACTTTTACAG [AD046]
Kd (KRAS G12D G12D, P01116-2; [26]): 5.38 nM | Kd [2, 26]: 0.65 nM

AACCTCGCCTTTACAACTATATCTGACGAAC [AB005]
Kd ([3]; Nap-dU at n (6) positions [5,10,11,12,18,20,22,24], SB18, 37 C): 0.12 nM | Kd ([2]; Nap-dU at n (6) positions [5,10,11,12,18,20,22,24]): 53.5 nM

GAGTGACCGTCTGCCTGGATATGCCTCTTCTGCAGTTACGGTGTGATCGCCCAATAGCAGCCACACCACCAGCC [TD009]
Kd (KRAS G12D G12D, P01116-2; Nap-dU at n (6) positions [Nap-dU at 20,22,26,28,29,31,36,37,42,44,47,55]): 2480 nM

CAGGTCGAGCTGTACGCGTGTGTGACCTGAAGACGTATA [AD044]
Kd (KRAS G12D G12D, P01116-2; [27]): 1580 nM | Kd [2, 27]: 2.93 nM

TCGAGCTGTACGCGTGTGTGACCTGAAGACGTATAACTTTTACAGAATCTACA [AD053]
Kd (KRAS G12D G12D, P01116-2; [28]): 1.03 nM | Kd [2, 28]: 1.37 nM

CAGGTCGAGCTGTACGCGTGTGTGACCTGCCCCACTTCTGACATTAGACTGTGTAGA [AD034]
Kd (KRAS G12D G12D, P01116-2; [29]): 473 nM | Kd [2, 29]: 0.59 nM

CCCCGCCTCTTCTGAAGTTAACATGTGCTCC [AD014]
Kd (KRAS G12D G12D, P01116-2; [5]): 1.95 nM | Kd [2, 5]: 28.8 nM

GAGTGACCGTCTGCCTGACAACAACGAGTGCGAACTGTACTACTTGATAGAGACCCTCAGCCACACCACCAGCC [AP013]
Kd [1, 4]: 74 nM | Kd [2, 4]: 19.1 nM

GAGTGACCGTCTGCCTGTCTCCAACCTCGCCTTTACAACTATATCTGACGAACTAACACAGCCACACCACCAGCC [AB001]
Kd ([3]; Nap-dU at n (6) positions [Nap-dU at 16,18,20,27,32,33,34,40,42,44,46,54], SB18 buffer (5 mM MgCl2), 37 C): 0.04 nM | Kd ([2]; Nap-dU at n (6) positions [Nap-dU at 16,18,20,27,32,33,34,40,42,44,46,54]): 8.39 nM

AACCTCGCCTTTACAACTATATCTGACGAACTAACA [AB004]
Kd ([3]; Nap-dU at n (6) positions [5,10,11,12,18,20,22,24,32], SB18, 37 C): 0.05 nM | Kd ([2]; Nap-dU at n (6) positions [5,10,11,12,18,20,22,24,32]): 102 nM

GACTAGCATAAGTCCGGATGGCAGCTTTATGCCG [AD006]
Kd (KRAS G12D G12D, P01116-2; [30]): 77.6 nM | Kd [2, 30]: 939 nM

GTGTGACCTGAAGACGTATAACTTTTACAGAATCTACA [AD050]
Kd (KRAS G12D G12D, P01116-2; [31]): 455 nM | Kd [2, 31]: 5.55 nM

CAGGTCGAGCTGTACGCGTGTGTGACCTGAAGAC [AD043]
Kd (KRAS G12D G12D, P01116-2; [32]): 263 nM | Kd [2, 32]: 4.18 nM
